# Results taken from IntAct's records for PubMed 19850040.
# B1: Post-transcriptional regulator MTA (Human herpesvirus 8), Q2HR75 (parent)
# chain: MVQAMIDMDIMKGILEDSVSSSEFDESRDDETDAPTLEDEQLSEPAEPPADERIRGTQSAQGIPPPLGRIPKKSQGRSQLRSEIQFCSPLSRPRSPSPVNRYGKKIKFGTAGQNTRPPPEKRPRRRPRDRLQYGRTTRGGQCRAAPKRATRRPQVNCQRQDDDVRQGVSDAVKKLRLPASMIIDGESPRFDDSIIPRHHGACFNVFIPAPPSHVPEVFTDRDITALIRAGGKDDELINKKISAKKIDHLHRQMLSFVTSRHNQAYWVSCRRETAAAGGLQTLGAFVEEQMTWAQTVVRHGGWFDEKDIDIILDTAIFVCNAFVTRFRLLHLSCVFDKQSELALIKQVAYLVAMGNRLVEACNLLGEVKLNFRGGLLLAFVLTIPGMQSRRSISARGQELFRTLLEYYRPGDVMGLLNVIVMEHHSLCRNSECAAATRAAMGSAKFNKGLFFYPLS
# Variants of: B1
# Conditions: with thoc4_human ALYREF
row,Variant,effect of a mutation on the interaction
1,MVQAMIDMDIMKGILEDSVSSSEFDESRDDETDAPTLEDEQLSEPAEPPADERIRGTQSAQGIPPPLGRIPKKSQGRSQLRSEIQFCSPLSRPRSPSPVNRYGKKIKFGTAGQNTRPPPEKRPRRRPRDRLQYGRTTRGGQCDAAPKRATRRPQVNCQRQDDDVRQGVSDAVKKLRLPASMIIDGESPRFDDSIIPRHHGACFNVFIPAPPSHVPEVFTDRDITALIRAGGKDDELINKKISAKKIDHLHRQMLSFVTSRHNQAYWVSCRRETAAAGGLQTLGAFVEEQMTWAQTVVRHGGWFDEKDIDIILDTAIFVCNAFVTRFRLLHLSCVFDKQSELALIKQVAYLVAMGNRLVEACNLLGEVKLNFRGGLLLAFVLTIPGMQSRRSISARGQELFRTLLEYYRPGDVMGLLNVIVMEHHSLCRNSECAAATRAAMGSAKFNKGLFFYPLS [R143D],disrupting interaction
2,MVQAMIDMDIMKGILEDSVSSSEFDESRDDETDAPTLEDEQLSEPAEPPADERIRGTQSAQGIPPPLGRIPKKSQGRSQLRSEIQFCSPLSRPRSPSPVNRYGKKIKFGTAGQNTRPPPEKRPRRRPRDRLQYGRTTRGGQCRAAPKRATDRPQVNCQRQDDDVRQGVSDAVKKLRLPASMIIDGESPRFDDSIIPRHHGACFNVFIPAPPSHVPEVFTDRDITALIRAGGKDDELINKKISAKKIDHLHRQMLSFVTSRHNQAYWVSCRRETAAAGGLQTLGAFVEEQMTWAQTVVRHGGWFDEKDIDIILDTAIFVCNAFVTRFRLLHLSCVFDKQSELALIKQVAYLVAMGNRLVEACNLLGEVKLNFRGGLLLAFVLTIPGMQSRRSISARGQELFRTLLEYYRPGDVMGLLNVIVMEHHSLCRNSECAAATRAAMGSAKFNKGLFFYPLS [R151D],disrupting interaction
3,MVQAMIDMDIMKGILEDSVSSSEFDESRDDETDAPTLEDEQLSEPAEPPADERIRGTQSAQGIPPPLGRIPKKSQGRSQLRSEIQFCSPLSRPRSPSPVNRYGKKIKFGTAGQNTRPPPEKRPRRRPRDRLQYGRTTRGGQCRAAPKQATRRPQVNCQRQDDDVRQGVSDAVKKLRLPASMIIDGESPRFDDSIIPRHHGACFNVFIPAPPSHVPEVFTDRDITALIRAGGKDDELINKKISAKKIDHLHRQMLSFVTSRHNQAYWVSCRRETAAAGGLQTLGAFVEEQMTWAQTVVRHGGWFDEKDIDIILDTAIFVCNAFVTRFRLLHLSCVFDKQSELALIKQVAYLVAMGNRLVEACNLLGEVKLNFRGGLLLAFVLTIPGMQSRRSISARGQELFRTLLEYYRPGDVMGLLNVIVMEHHSLCRNSECAAATRAAMGSAKFNKGLFFYPLS [R148Q],disrupting interaction
4,MVQAMIDMDIMKGILEDSVSSSEFDESRDDETDAPTLEDEQLSEPAEPPADERIRGTQSAQGIPPPLGRIPKKSQGRSQLRSEIQFCSPLSRPRSPSPVNRYGKKIKFGTAGQNTRPPPEKRPRRRPRDRLQYGRTTRGGQCRAAPKRATRGPQVNCQRQDDDVRQGVSDAVKKLRLPASMIIDGESPRFDDSIIPRHHGACFNVFIPAPPSHVPEVFTDRDITALIRAGGKDDELINKKISAKKIDHLHRQMLSFVTSRHNQAYWVSCRRETAAAGGLQTLGAFVEEQMTWAQTVVRHGGWFDEKDIDIILDTAIFVCNAFVTRFRLLHLSCVFDKQSELALIKQVAYLVAMGNRLVEACNLLGEVKLNFRGGLLLAFVLTIPGMQSRRSISARGQELFRTLLEYYRPGDVMGLLNVIVMEHHSLCRNSECAAATRAAMGSAKFNKGLFFYPLS [R152G],disrupting interaction
5,MVQAMIDMDIMKGILEDSVSSSEFDESRDDETDAPTLEDEQLSEPAEPPADERIRGTQSAQGIPPPLGRIPKKSQGRSQLRSEIQFCSPLSRPRSPSPVNRYGKKIKFGTAGQNTRPPPEKRPRRRPRDRLQYGRTTRGGQCRAAPERATRRPQVNCQRQDDDVRQGVSDAVKKLRLPASMIIDGESPRFDDSIIPRHHGACFNVFIPAPPSHVPEVFTDRDITALIRAGGKDDELINKKISAKKIDHLHRQMLSFVTSRHNQAYWVSCRRETAAAGGLQTLGAFVEEQMTWAQTVVRHGGWFDEKDIDIILDTAIFVCNAFVTRFRLLHLSCVFDKQSELALIKQVAYLVAMGNRLVEACNLLGEVKLNFRGGLLLAFVLTIPGMQSRRSISARGQELFRTLLEYYRPGDVMGLLNVIVMEHHSLCRNSECAAATRAAMGSAKFNKGLFFYPLS [K147E],disrupting interaction

# Variants of: B1
# Conditions: with thoc4_human ALYREF
# Remark: another data set of the same source
row,Variant,effect of a mutation on the interaction
1,MVQAMIDMDIMKGILEDSVSSSEFDESRDDETDAPTLEDEQLSEPAEPPADERIRGTQSAQGIPPPLGRIPKKSQGRSQLRSEIQFCSPLSRPRSPSPVNSYGKKIKFGTAGQNTRPPPEKRPRRRPRDRLQYGRTTRGGQCRAAPKRATRRPQVNCQRQDDDVRQGVSDAVKKLRLPASMIIDGESPRFDDSIIPRHHGACFNVFIPAPPSHVPEVFTDRDITALIRAGGKDDELINKKISAKKIDHLHRQMLSFVTSRHNQAYWVSCRRETAAAGGLQTLGAFVEEQMTWAQTVVRHGGWFDEKDIDIILDTAIFVCNAFVTRFRLLHLSCVFDKQSELALIKQVAYLVAMGNRLVEACNLLGEVKLNFRGGLLLAFVLTIPGMQSRRSISARGQELFRTLLEYYRPGDVMGLLNVIVMEHHSLCRNSECAAATRAAMGSAKFNKGLFFYPLS [R101S],disrupting interaction
2,MVQAMIDMDIMKGILEDSVSSSEFDESRDDETDAPTLEDEQLSEPAEPPADERIRGTQSAQGIPPPLGRIPKKSQGRSQLRSEIQFCSPLSRPRSPSPVNRYGNKIKFGTAGQNTRPPPEKRPRRRPRDRLQYGRTTRGGQCRAAPKRATRRPQVNCQRQDDDVRQGVSDAVKKLRLPASMIIDGESPRFDDSIIPRHHGACFNVFIPAPPSHVPEVFTDRDITALIRAGGKDDELINKKISAKKIDHLHRQMLSFVTSRHNQAYWVSCRRETAAAGGLQTLGAFVEEQMTWAQTVVRHGGWFDEKDIDIILDTAIFVCNAFVTRFRLLHLSCVFDKQSELALIKQVAYLVAMGNRLVEACNLLGEVKLNFRGGLLLAFVLTIPGMQSRRSISARGQELFRTLLEYYRPGDVMGLLNVIVMEHHSLCRNSECAAATRAAMGSAKFNKGLFFYPLS [K104N],disrupting interaction
3,MVQAMIDMDIMKGILEDSVSSSEFDESRDDETDAPTLEDEQLSEPAEPPADERIRGTQSAQGIPPPLGRIPKKSQGRSQLRSEIQFCSPLSRPRSPSPVNRYGKKIEFGTAGQNTRPPPEKRPRRRPRDRLQYGRTTRGGQCRAAPKRATRRPQVNCQRQDDDVRQGVSDAVKKLRLPASMIIDGESPRFDDSIIPRHHGACFNVFIPAPPSHVPEVFTDRDITALIRAGGKDDELINKKISAKKIDHLHRQMLSFVTSRHNQAYWVSCRRETAAAGGLQTLGAFVEEQMTWAQTVVRHGGWFDEKDIDIILDTAIFVCNAFVTRFRLLHLSCVFDKQSELALIKQVAYLVAMGNRLVEACNLLGEVKLNFRGGLLLAFVLTIPGMQSRRSISARGQELFRTLLEYYRPGDVMGLLNVIVMEHHSLCRNSECAAATRAAMGSAKFNKGLFFYPLS [K107E],disrupting interaction
4,MVQAMIDMDIMKGILEDSVSSSEFDESRDDETDAPTLEDEQLSEPAEPPADERIRGTQSAQGIPPPLGRIPKKSQGRSQLRSEIQFCSPLSRPRSPSPVNRYGKNIKFGTAGQNTRPPPEKRPRRRPRDRLQYGRTTRGGQCRAAPKRATRRPQVNCQRQDDDVRQGVSDAVKKLRLPASMIIDGESPRFDDSIIPRHHGACFNVFIPAPPSHVPEVFTDRDITALIRAGGKDDELINKKISAKKIDHLHRQMLSFVTSRHNQAYWVSCRRETAAAGGLQTLGAFVEEQMTWAQTVVRHGGWFDEKDIDIILDTAIFVCNAFVTRFRLLHLSCVFDKQSELALIKQVAYLVAMGNRLVEACNLLGEVKLNFRGGLLLAFVLTIPGMQSRRSISARGQELFRTLLEYYRPGDVMGLLNVIVMEHHSLCRNSECAAATRAAMGSAKFNKGLFFYPLS [K105N],disrupting interaction
